From PMC9879961 (Nature Communications, 2023)
Where a chain is given by its changes, count along the chain named. Numbers in names are those of the source.

T1: CTRB (Homo sapiens, UniProt P51587 3194-3418)
T1 sequence: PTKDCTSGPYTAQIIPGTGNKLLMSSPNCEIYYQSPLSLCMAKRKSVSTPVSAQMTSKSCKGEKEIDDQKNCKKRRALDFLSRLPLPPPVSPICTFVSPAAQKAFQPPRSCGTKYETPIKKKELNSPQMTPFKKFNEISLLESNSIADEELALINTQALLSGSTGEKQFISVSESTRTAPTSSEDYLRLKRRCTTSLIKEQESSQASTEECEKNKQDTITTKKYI

T2: RAD51 (UniProt Q06609 1-339)
T2 construct: No tag is named; also called RAD51 recombinase; source: E. coli BLR pRARE (pET11-RAD51), purified (ammonium sulfate, Q Sepharose, hydroxyapatite, Mono-Q)
T2 sequence (looked up): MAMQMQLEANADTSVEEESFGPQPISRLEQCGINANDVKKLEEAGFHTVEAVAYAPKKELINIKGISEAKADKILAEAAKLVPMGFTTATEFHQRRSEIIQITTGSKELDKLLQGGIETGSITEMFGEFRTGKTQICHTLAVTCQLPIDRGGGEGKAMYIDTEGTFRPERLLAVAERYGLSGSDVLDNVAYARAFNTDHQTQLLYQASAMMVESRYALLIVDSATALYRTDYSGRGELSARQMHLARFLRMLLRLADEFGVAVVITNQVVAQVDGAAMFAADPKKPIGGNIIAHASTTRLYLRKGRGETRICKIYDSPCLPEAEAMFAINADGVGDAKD

B1: Fork substrate (Oligo-H3/H5) (mixed)
DNA 1: TTGATAAGAGGTCATTTGAATTCATGGCTTAGAGCTTAATTGCTGAATCTGGTGCTGGGATCCAACATGTTTTAAATATG
DNA 2: CATATTTAAAACATGTTGGATCCCAGCACCAGATTCAGCATACGTTACCGATCGTACGTTCGATGCTGGCTACTGCTAGC
B2: CTRB (BRCA2 residues 3194-3418), His6-Thioredoxin-S tagged, C-terminally Flag-tagged (domain or fragment, human, UniProt P51587 3194-3418, looked up)
chain: T1 sequence
notes: BRCA2, human, residues 3194-3418 of the 3,418-residue protein; No tag cleavage is described; also called wild-type CTRB; source: E. coli Rosetta (pET32a), purified (Ni-NTA, Source S, anti-Flag M2, Mono-Q)
B3: CTRB-S3291E (domain or fragment, human, UniProt P51587 3194-3418, looked up)
chain: T1 sequence with S98E
notes: BRCA2, human, CTRB (residues 3194-3418) with S3291E; Called a CTRB mutant purified as wild-type CTRB; source: E. coli, purified using the procedure developed for wild-type CTRB
B4: CTRB-S3291A (domain or fragment, human, UniProt P51587 3194-3418, looked up)
chain: T1 sequence with S98A
notes: BRCA2, human, CTRB (residues 3194-3418) with S3291A; Called a CTRB mutant purified as wild-type CTRB; source: E. coli, purified using the procedure developed for wild-type CTRB
B5: CTRB-4A (BRCA2 residues 3194-3418, KKRR(3266-3269) to AAAA) (domain or fragment, human, UniProt P51587 3194-3418, looked up)
chain: T1 sequence with K73A, K74A, R75A, R76A
notes: BRCA2, human, residues 3194-3418; also called 4 A mutant; source: E. coli Rosetta (pET32a), purified as the wild type
B6: GST-TR2 (BRCA2 residues 3265-3330) (domain or fragment, human, UniProt P51587 3265-3330, looked up)
chain: CKKRRALDFLSRLPLPPPVSPICTFVSPAAQKAFQPPRSCGTKYETPIKKKELNSPQMTPFKKFNE
notes: BRCA2, human, TR2 region, residues 3265-3330; also called BRCA2-TR2 polypeptide; source: E. coli Rosetta (pGEX-TR2), purified (glutathione-Sepharose, SP Sepharose); not shown: GST, N-terminal, kept
B7: GST-TR2 with deletion of residues 3291-3295 (domain or fragment, human, UniProt P51587 3265-3330, looked up)
chain: CKKRRALDFLSRLPLPPPVSPICTFVKAFQPPRSCGTKYETPIKKKELNSPQMTPFKKFNE
notes: BRCA2, human, TR2 region, residues 3265-3330, internally truncated; source: E. coli Rosetta (pGEX-TR2 variant), purified (glutathione-Sepharose, SP Sepharose); not shown: GST, N-terminal, kept
B8: GST-TR2 with deletion of residues 3306-3310 (domain or fragment, human, UniProt P51587 3265-3330, looked up)
chain: CKKRRALDFLSRLPLPPPVSPICTFVSPAAQKAFQPPRSCGPIKKKELNSPQMTPFKKFNE
notes: as for B7

Tests used:
CTRB = target: T1, CTRB; assay: EMSA; highest affinity of the three DNAs; EMSA: 10 nM DNA, 35 mM Tris pH 7.5, 1 mM MgCl2, 1 mM DTT, 100 ug/ml BSA, 50 mM KCl, 25 C, 5 min; 8% native PAGE in TAE; details: protein: recombinant; tags: N-term His6-thioredoxin-S (pET32a), C-term Flag; label: 5' Cy5 on H3; fork 1:2, 40 bp duplex with two 40 nt ssDNA arms
RAD51 [1] = target: T2, RAD51; assay: pull-down; CTRB species held through the S-tag on S-Protein agarose; RAD51 and CTRB 4 µg each; 25 µl buffer T (25 mM Tris-HCl pH 7.5, 0.5 mM EDTA, 10% glycerol, 0.01% Igepal) with 150 mM KCl and Benzonase; on ice 30 min, resin 1 h at 4 °C; SDS-PAGE, Coomassie; details: both partners purified
RAD51 [2] = target: T2, RAD51; assay: pull-down; GST-tagged TR2 polypeptides captured on glutathione-Sepharose with RAD51; 10 µl buffer K (20 mM KH2PO4 pH 7.5, 0.5 mM EDTA, 10% glycerol, 0.01% Igepal) with 150 mM KCl; SDS-PAGE, Coomassie; details: both partners purified

Row | Binder | binding result (RAD51 [1]) | binding result (RAD51 [2]) | also measured
1 | B1 | – | – | binding result (CTRB): binds
2 | B2 | binds | – | –
3 | B3 | binds | – | –
4 | B4 | binds | – | –
5 | B5 | binds | – | –
6 | B6 | – | binds | –
7 | B7 | – | binds | –
8 | B8 | – | binds | –
